# Laboratory results published in patent US10590192B2, “Midkine antibody” (Cellmid Limited, priority 2014, dated 2020).
# Substitutions are numbered along the chain they refer to.
# T1: recombinant human MK (huMK) (Homo sapiens, UniProt P21741)
# T1 sequence (P21741 21-143): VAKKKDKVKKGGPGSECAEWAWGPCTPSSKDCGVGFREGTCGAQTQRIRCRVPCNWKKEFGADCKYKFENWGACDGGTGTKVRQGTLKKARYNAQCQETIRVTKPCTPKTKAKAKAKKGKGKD
# T2: murine MK (muMK) (Mus musculus, UniProt P12025)
# T2 sequence (P12025 23-140): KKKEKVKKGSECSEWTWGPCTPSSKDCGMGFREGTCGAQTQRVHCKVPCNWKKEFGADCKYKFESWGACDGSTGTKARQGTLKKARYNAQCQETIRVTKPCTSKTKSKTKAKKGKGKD
# B1: IP14-H3L4: humanised IP14 antibody: VH SEQ ID NO: 4, VL SEQ ID NO: 13 (antibody, V domains shown)
# VH: QVQLVQSGAEVKKPGASVKVSCKASGQSFSSYWMNWVRQAPGQGLEWMGMIHPSDSETILNQKFKDKVTMTRDTSTSTVYMELSSLRSEDTAVYYCARWSAKRGDFWGQGTLVTVSS
# VL: EIVLTQSPDFQSVTPKEKVNITCRASESISNNLHWYQQKPHQSPKLLIYYASQSISGVPSRFSGSGSGTDFNLTINSVEAEDAATYYCQQSNSWPLTFGGGTKLEIKR
# modifications: Variable region heavy chain humanised variant 3 (VH3); Variable region light chain humanised variant 4 (VL4)
# B2: IP14-H3L7: humanised IP14 antibody: VH SEQ ID NO: 4, VL SEQ ID NO: 16 (antibody, V domains shown)
# VH: B1 VH
# VL: DIVLTQSPATLSLSPGERANLSCRASESISNNLHWYQQKPHQAPRLLIYYASQSISGVPARFSGSGSGTDFNLTISSVEPEDFAVYYCQQSNSWPLTFGQGTKVEIKR
# modifications: Variable region heavy chain humanised variant 3 (VH3); Variable region light chain humanised variant 7 (VL7)
# B3: IP14-H3L8: humanised IP14 antibody: VH SEQ ID NO: 4, VL SEQ ID NO: 17 (antibody, V domains shown)
# VH: B1 VH
# VL: B2 VL with N20T, N72T
# modifications: Variable region heavy chain humanised variant 3 (VH3); Variable region light chain humanised variant 8 (VL8)
# B4: IP14-H4L4: humanised IP14 antibody: VH SEQ ID NO: 5, VL SEQ ID NO: 13 (antibody, V domains shown)
# VH: QVQLVQSGAEVKKPGASVKVSCKASGYTFTSYYMHWVRQAPGQGLEWMGIIHPSGGSTSYAQKFQGRVTMTRDTSTSTVYMELSSLRSEDTAVYYCARWSAKRGDFWGQGTLVTVSS
# VL: B1 VL
# modifications: Variable region heavy chain humanised variant 4 (VH4); Variable region light chain humanised variant 4 (VL4)
# B5: IP14-H5L5: humanised IP14 antibody: VH SEQ ID NO: 6, VL SEQ ID NO: 14 (antibody, V domains shown)
# VH: QVQLVQSGGGLVQPGGSLRLSCAASGQSFSSYWMNWVRQAPGQGLEWIGMIHPSDSETILNQKFKDKATLTVDISKNTAYLQMNSLRAEDTAVYYCSSWSAKRGDFWGQGTLVTVSS
# VL: EIVLTQSPATLSLSPGERATLSCRASQGVSSNLAWYQQKPGQAPRLLIYDASNRATGIPARFSGSGPGTDFTLTISSLEPEDFAVYYCQQSNSWPLTFGQGTKVEIKR
# modifications: Variable region heavy chain humanised variant 5 (VH5); Variable region light chain humanised variant 5 (VL5)
# B6: IP14-H4L5: humanised IP14 antibody: VH SEQ ID NO: 5, VL SEQ ID NO: 14 (antibody, V domains shown)
# VH: B4 VH
# VL: B5 VL
# modifications: Variable region heavy chain humanised variant 4 (VH4); Variable region light chain humanised variant 5 (VL5)
# B7: IP14-H3L5: humanised IP14 antibody: VH SEQ ID NO: 4, VL SEQ ID NO: 14 (antibody, V domains shown)
# VH: B1 VH
# VL: B5 VL
# modifications: Variable region heavy chain humanised variant 3 (VH3); Variable region light chain humanised variant 5 (VL5)
# B8: IP14-H1L5: humanised IP14 antibody: VH SEQ ID NO: 2, VL SEQ ID NO: 14 (antibody, V domains shown)
# VH: B1 VH with A16H, M48I, V68A, M70L, R72V, T74I, V79A, L86P, A97S, R98S
# VL: B5 VL
# modifications: Variable region heavy chain humanised variant 1 (VH1); Variable region light chain humanised variant 5 (VL5)
# B9: IP14-H2L5: humanised IP14 antibody: VH SEQ ID NO: 3, VL SEQ ID NO: 14 (antibody, V domains shown)
# VH: B1 VH with M48I, V68A, M70L, R72V, T74I, V79A, A97S, R98S
# VL: B5 VL
# modifications: Variable region heavy chain humanised variant 2 (VH2); Variable region light chain humanised variant 5 (VL5)
# B10: IP14-H6L5: humanised IP14 antibody: VH SEQ ID NO: 7, VL SEQ ID NO: 14 (antibody, V domains shown)
# VH: B5 VH with Q13K, G16H, Q43K, T71S, S75A, T78S
# VL: B5 VL
# modifications: Variable region heavy chain humanised variant 6 (VH6); Variable region light chain humanised variant 5 (VL5)
# B11: IP14-H4L1: humanised IP14 antibody: VH SEQ ID NO: 5, VL SEQ ID NO: 10 (antibody, V domains shown)
# VH: B4 VH
# VL: B2 VL with D1E, Y49K, V58I, S67P, Q100G, V104L
# modifications: Variable region heavy chain humanised variant 4 (VH4); Variable region light chain humanised variant 1 (VL1)
# B12: IP14-H4L2: humanised IP14 antibody: VH SEQ ID NO: 5, VL SEQ ID NO: 11 (antibody, V domains shown)
# VH: B4 VH
# VL: B2 VL with D1E, N20T, H41G, Y49K, V58I, S67P, N72T, Q100G, V104L
# modifications: Variable region heavy chain humanised variant 4 (VH4); Variable region light chain humanised variant 2 (VL2)
# B13: IP14-H4L6: humanised IP14 antibody: VH SEQ ID NO: 5, VL SEQ ID NO: 15 (antibody, V domains shown)
# VH: B4 VH
# VL: EIVLTQSPSTLSASVGDRVNITCRASESISNNLHWYQQKPHKAPKLLIYYASQSISGVPSRFSGSGSGTEFNLTISSVQPDDFATYYCQQSNSWPLTFGQGTKVEIKR
# modifications: Variable region heavy chain humanised variant 4 (VH4); Variable region light chain humanised variant 6 (VL6)
# B14: IP14-H4L3: humanised IP14 antibody: VH SEQ ID NO: 5, VL SEQ ID NO: 12 (antibody, V domains shown)
# VH: B4 VH
# VL: B2 VL with N20T, H41G, V58I, S67P, N72T, V78L, Q100G, V104L
# modifications: Variable region heavy chain humanised variant 4 (VH4); Variable region light chain humanised variant 3 (VL3)
# Target: T1, recombinant human MK (huMK)
# Assay: ELISA binding of humanised anti-MK antibodies to huMK
# Details: ELISA, plates coated with 2 ug/mL huMK; read-out: Binding affinity for huMK, ELISA EC50
# Description: (§1) The binding specificity and affinity of the humanised anti-MK antibodies to recombinant human MK (huMK) and murine MK (muMK) was assessed by ELISA. ELISA plates (Nunc Immuno MaxiSorp 96 well flat-bottom were coated with 100 uL of 2 ug/mL of either huMK or muMK in 2% BSA/PBS (overnight at room temperature). After washing, blocking (1 h at 37° C.), and washing again, the humanised anti-MK and chimeric antibodies described in Example 1 were analysed for binding to huMK or muMK at concentrations ranging between 3 μg/ml and 0.00004 μg/ml in 2% BSA/PBS (1 h at 37° C.). After washing, the binding of antibody was detected with goat anti-mouse IgG (Fab specific)-HRP conjugate (Sigma, Cat. No. A9917) and SigmaFast OPD substrate (Sigma, Cat. No. P9187). The reaction was stopped with 3 M HCl, absorbance read at 490 nm on a Dynex Technologies MRX TC II plate reader and the binding curves plotted. Binding affinity data for the humanised anti-MK antibodies to huMK and muMK are presented in Table 6 and Table 7 respectively, and in FIG. 3.
# (§2) KD values for hIP14-H5L8, hIP14-H6L3 and hIP14-H6L8 was then compared with the KD values obtained for the corresponding murine IP14 precursor antibody and the chimeric antibody using the methods described in Example 2. […] Based on this finding, these candidate antibodies were produced to 100 mg scale to enable further testing in functional assays to determine biological function.
row,EC50 [nM],Molecule
1,> 10,B1
2,> 10,B2
3,> 10,B3
4,> 10,B4
5,> 10,B5
6,> 10,B6
7,> 10,B7
8,> 10,B8
9,> 10,B9
10,> 10,B10
11,> 10,B11
12,> 10,B12
13,> 10,B13
14,> 10,B14

# Target: T2, murine MK (muMK)
# Assay: ELISA binding of humanised anti-MK antibodies to muMK
# Details: ELISA, plates coated with 2 ug/mL muMK; read-out: Binding affinity for muMK, ELISA EC50
# Description: as §1, §2
row,EC50 [nM],Molecule
1,> 10,B4
2,> 10,B5
3,> 10,B6
4,> 10,B8
5,> 10,B9
6,> 10,B10
7,> 10,B11
8,> 10,B12
9,> 10,B13
10,> 10,B14
